# Assays:
# [1] = tested on: histone H2B
# [2] = tested on: T1, mutant eNOS peptide (1174-1194) with serine 1179 substituted by alanine
# T1 sequence: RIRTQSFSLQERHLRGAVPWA
# [3] = tested on: T2, wild type eNOS peptide 1174-RIRTQSFSLQERHLRGAVPWA-1194
# T2 sequence: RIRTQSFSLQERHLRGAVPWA
# [4] = molecular target: T3, endogenous eNOS of HUVEC (UniProt P29474)
# T3 sequence: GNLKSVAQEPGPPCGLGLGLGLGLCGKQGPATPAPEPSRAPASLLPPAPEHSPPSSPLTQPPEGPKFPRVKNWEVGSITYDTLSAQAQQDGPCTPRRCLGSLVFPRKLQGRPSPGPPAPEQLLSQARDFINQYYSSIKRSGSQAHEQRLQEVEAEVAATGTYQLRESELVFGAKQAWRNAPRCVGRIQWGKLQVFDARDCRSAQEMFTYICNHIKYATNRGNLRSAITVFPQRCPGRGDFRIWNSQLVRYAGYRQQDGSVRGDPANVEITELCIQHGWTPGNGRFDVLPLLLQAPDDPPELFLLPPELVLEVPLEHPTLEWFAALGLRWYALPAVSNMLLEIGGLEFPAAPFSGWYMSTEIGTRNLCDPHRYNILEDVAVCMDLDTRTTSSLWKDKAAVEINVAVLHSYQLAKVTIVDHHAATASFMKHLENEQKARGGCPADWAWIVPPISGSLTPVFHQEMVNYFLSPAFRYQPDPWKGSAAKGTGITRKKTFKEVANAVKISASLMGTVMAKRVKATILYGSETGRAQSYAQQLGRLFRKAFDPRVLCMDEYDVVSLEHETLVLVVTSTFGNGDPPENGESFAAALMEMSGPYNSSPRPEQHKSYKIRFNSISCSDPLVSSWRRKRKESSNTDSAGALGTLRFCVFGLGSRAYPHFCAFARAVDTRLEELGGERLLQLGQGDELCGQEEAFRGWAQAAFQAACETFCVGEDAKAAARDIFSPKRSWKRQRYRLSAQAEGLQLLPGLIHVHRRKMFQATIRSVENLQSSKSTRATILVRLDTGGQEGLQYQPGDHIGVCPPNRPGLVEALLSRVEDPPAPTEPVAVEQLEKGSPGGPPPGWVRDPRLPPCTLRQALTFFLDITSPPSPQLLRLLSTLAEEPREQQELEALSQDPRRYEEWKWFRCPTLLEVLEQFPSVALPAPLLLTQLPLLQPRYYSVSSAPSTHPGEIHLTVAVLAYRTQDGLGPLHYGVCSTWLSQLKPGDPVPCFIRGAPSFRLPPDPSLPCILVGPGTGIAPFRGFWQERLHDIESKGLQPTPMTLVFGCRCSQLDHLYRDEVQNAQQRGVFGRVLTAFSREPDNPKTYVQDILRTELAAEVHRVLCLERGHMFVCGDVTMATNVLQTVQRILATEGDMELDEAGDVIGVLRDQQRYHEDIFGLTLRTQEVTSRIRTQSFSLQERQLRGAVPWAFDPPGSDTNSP
Substance,phosphorylation of histone H2B by immunoprecipitated Akt (autoradiography) [1],32P incorporation into eNOS peptide by immunoprecipitated Akt (in vitro kinase assay) [2],32P incorporation into eNOS peptide by immunoprecipitated Akt (in vitro kinase assay) [3],"32P-phosphate incorporation into endogenous eNOS in HUVEC (immunoprecipitation, autoradiography) [4]"
Akt immunoprecipitated from HUVEC lysate with goat polyclonal anti-Akt1 antibody,Akt polypeptide kinase activity was increased in lysates of HUVEC treated with 1.0 µM simvastatin or 100 ng/ml VEGF,a peptide with alanine substituted for serine at position 1179 did not incorporate appreciable phosphate under any condition tested,Activation of Akt kinase activity was also observed when lysates prepared from simvastatin-treated cells were tested for their ability to phosphorylate a peptide containing the Akt phosphorylation site of eNOS (amino acids 1174 to 1194),
"constitutively-active Akt (myrAkt), expressed in HUVEC from an adenovirus",,,,adenovirus-mediated transduction of constitutively-active Akt (myrAkt) led to the incorporation of phosphate into eNOS in the absence of stimulation with simvastatin or VEGF

# — patent US20040122077
